From US20240018252A1 (Pfizer, published 2024)

Legend:
human CD3 (huCD3ed) [1] = molecular target: T1, human CD3 (huCD3ed) (human, UniProt P07766 23-126; P04234 22-105); test: Biacore SPR, antibody as ligand, hCD3ed 80 nM-0.64 nM, kinetic fit
T1 construct: Soluble analyte in SPR; The delta chain is inferred from the label 'ed'; also called hCD3ed; hCD3

human BCMA = molecular target: T2, human BCMA (human, UniProt Q02223 1-54); test: SPR, IgG immobilized, human BCMA analyte, 37 C
T2 construct: soluble analyte in SPR; also called hBCMA; huBCMA
T2 sequence: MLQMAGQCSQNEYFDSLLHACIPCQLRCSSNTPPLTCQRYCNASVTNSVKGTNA
Description: (§1) All experiments were performed on a Bio-Rad Proteon XPR36 surface Plasmon resonance biosensor (Bio-Rad, Hercules, CA). […] The analysis temperature for the immobilization was 25° C. and the running buffer was HBS-T+(10 mM HEPES, 150 mM NaCl, 0.05% Tween-20, pH 7.4). Channels were activated in the analyte (horizontal) direction by injecting a mixture of 1 mM ECD and 0.25 mM NHS for 3 minutes at a flow rate of 30 μL/min. IgGs were immobilized on the activated spots by injecting them in the ligand (vertical) direction at […] in 10 mM Acetate pH 4.5 buffer for 1.5 minutes at 30 pg/mL. The activated surfaces were blocked by injecting 1M ethanolamine, pH 8.5 in the analyte direction for 3 minutes at 30 pL/min.
(§2) The analysis temperature for the hBCMA binding analysis was 37° C. or 25° C. in a running buffer of HBS-T+, supplemented with 1 mg/mL BSA. A kinetic titration method was employed for the interaction analysis as described in Abdiche, et al. The hBCMA (human BCMA) analyte was injected in the analyte direction using a series of injections from low to high concentration. The concentrations used were 0.08 nM, 0.4 nM, 2 nM, 10 nM and 50 nM (a 5-membered series, with a 5-fold dilution factor and top concentration of 50 nM). The association time for a given analyte dilution was two minutes. Immediately after the 50 nM hBCMA injection, dissociation was monitored for 2 hours.
(§3) The sensorgrams were double-referenced and fit to a 1:1 Langmuir with mass transport kinetic titration model in BIAevaluation Software version 4.1.1 (GE Lifesciences, Piscataway, NJ).

[2] = molecular target: T3, human BCMA on BCMA-expressing tumor cells (human, UniProt Q02223 1-184); test: flow cytometry, 0.5 ug antibody on 250,000 MM1S (BCMA++) cells, Alexa Fluor 647 anti-mouse IgG
T3 construct: endogenous BCMA of myeloma cell lines; also called BCMA on KMS12PE, MM1S (MM1.S), L363, KMS12BM cells
T3 sequence: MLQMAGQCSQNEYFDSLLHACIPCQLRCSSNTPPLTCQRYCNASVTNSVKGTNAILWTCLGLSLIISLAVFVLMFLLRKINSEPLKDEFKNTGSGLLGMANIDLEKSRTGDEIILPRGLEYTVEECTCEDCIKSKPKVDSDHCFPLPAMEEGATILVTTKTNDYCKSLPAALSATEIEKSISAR
Description: (§4) Binding of human anti-hBCMA expressed in mouse IgG2a were assessed on BCMA-expressing cells (KMS12BM, L363, MM1S and KMS12PE) by flow cytometry. 250,000 cells were incubated with 0.5 ug antibody in 100 uL binding buffer (PBS (Phosphate Buffered Saline)+0.2% BSA (Bovine Serum Albumin)), followed by incubation with Alex Fluor 647 conjugated anti-mouse IgG (Biolegend).

[3] = molecular target: T3, human BCMA on BCMA-expressing tumor …; test: flow cytometry, 0.5 ug antibody on 250,000 L363 (BCMA+) cells, Alexa Fluor 647 anti-mouse IgG
Description: as §4

[4] = molecular target: T3, human BCMA on BCMA-expressing tumor …; test: flow cytometry, 0.5 ug antibody on 250,000 KMS12PE (BCMA+++) cells, Alexa Fluor 647 anti-mouse IgG
Description: as §4

[5] = molecular target: T3, human BCMA on BCMA-expressing tumor …; test: flow cytometry, 0.5 ug antibody on 250,000 KMS12BM (BCMA+) cells, Alexa Fluor 647 anti-mouse IgG
Description: as §4

human CD3 (huCD3ed) [6] = molecular target: T1, human CD3 (huCD3ed); test: Biacore SPR, antibody as ligand, hCD3ed; steady state affinity only, rough estimate (antibody heterogeneous)
human CD3 (huCD3ed) [7] = molecular target: T1, human CD3 (huCD3ed); test: SPR (ProteOn XPR36), IgG on chip, huCD3ed analyte, 37 C; column head says nM but kd/ka gives this number in M
Description: as §1, with “[…].” for “pg/mL.”, “μL/min.” for “pL/min.”
as §2, with “hCD3” for “hBCMA”, “CD3)” for “BCMA)”
as §3

human CD3 (huCD3ed) [8] = molecular target: T1, human CD3 (huCD3ed); test: SPR (ProteOn XPR36), IgG amine-coupled on chip, huCD3ed as analyte, 37 C
Description: as §1, with “[…].” for “pg/mL.”, “μL/min.” for “pL/min.”
as §2, with “hCD3” for “hBCMA”, “CD3)” for “BCMA)”
as §3

cynomolgus CD3 (cyCD3ed) = molecular target: T4, cynomolgus CD3 (cyCD3ed) (cynomolgus, UniProt Q95LI5 22-117; Q95LI8 22-105); test: SPR (ProteOn XPR36), IgG amine-coupled on chip, cyCD3ed as analyte, 25 C
T4 construct: Named only by the column head 'cyCD3ed'
T4 sequence (Q95LI5 22-117, chain 1 of 2): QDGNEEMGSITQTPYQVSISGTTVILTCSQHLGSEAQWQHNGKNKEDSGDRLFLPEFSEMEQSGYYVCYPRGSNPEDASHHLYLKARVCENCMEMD
T4 sequence (Q95LI8 22-105, chain 2 of 2): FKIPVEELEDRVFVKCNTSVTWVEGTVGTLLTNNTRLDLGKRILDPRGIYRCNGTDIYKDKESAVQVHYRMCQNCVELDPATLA

human CD3 (huCD3ed) [9] = molecular target: T1, human CD3 (huCD3ed); test: SPR (ProteOn XPR36), IgG amine-coupled on chip, huCD3ed as analyte, 25 C
Description: as §1, with “[…].” for “pg/mL.”, “μL/min.” for “pL/min.”
as §2, with “hCD3” for “hBCMA”, “CD3)” for “BCMA)”
as §3

T1 sequence (P07766 23-126, chain 1 of 2): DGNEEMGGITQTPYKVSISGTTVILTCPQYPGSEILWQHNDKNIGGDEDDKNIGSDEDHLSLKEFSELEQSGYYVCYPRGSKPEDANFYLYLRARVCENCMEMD
T1 sequence (P04234 22-105, chain 2 of 2): as the sequence (Q95LI8 22-105, chain 2 of 2) above, with V5I, K15N, V20I, T32S, N33D, N34I, A64T, N74S, L83V counted along it

B1: UCHT1 (antibody, V domains shown)
VH: EVQLQQSGPELVKPGPSMKISCKASGYSFTGYTMNWVKQSHGKNLEWMGLINPYKGVSTYNQKFKDKATLTVDKSSSTAYMELLSLTSEDSAVYYCARSGYYGDSDWYFDVWGQGTTLTVFS
VL: DIQMTQTTSSLSASLGDRVTISCRASQDIRNYLNWYQQKPDGTVKLLIYYTSRLHSGVPSKFSGSGSGTDYSLTISNLEQEDIATYFCQQGNTLPWTFAGGTKLEIKR
- Kd (human CD3 (huCD3ed) [1]): < 4.74 nM
- t1/2 (human CD3 (huCD3ed) [1]): > 13.5 min

B2: 2B4 (antibody, mouse IgG1, V domains shown)
VH: EVKLVESGGGLVQPGGSLRLSCATFGFTFTDYYMTWVRQPPGKALEWVAFIRNRARGYTSDHNASVKGRFTISRDNSQNILYLQMNTLRAEDSATYYCARDRPSYYVLDYWGQGTTVTVSS
VL: DIVMSQSPPSLAVSVGDKVTMSCTSSQSLFNSRSRKNYLAWYQQKSGQSPKLLISWASTRESGVPDRFTGSGSGTDFTLTISSVQAEDLAVYYCKQSYDLFTFGSGTKLEIK
notes: Cloned from immunized mouse, expressed as mouse IgG1; also called anti-CD3 2B4
- Kd (human CD3 (huCD3ed) [1]): 7.33 nM
- t1/2 (human CD3 (huCD3ed) [1]): 4.21 min

B3: COMBO_Rd4_0.6nM_C19 (antibody, V domains shown)
VH: EVQLLESGGGLVQPGGSLRLSCAASGFTFSSYPMSWVRQAPGKGLEWVSAIGGSGGSLPYADSVKGRFTISRDNSKNTLYLQMNSLRAEDTAVYYCARYWPMDSWGQGTLVTVSS
VL: EIVLTQSPGTLSLSPGERATLSCRASQSVSAVYLAWYQQKPGQAPRLLMYDASIRATGIPDRFSGSGSGTDFTLTISRLEPEDFAVYYCQQYRAWPLTFGQGTKVEIK
notes: IgG in SPR
- Kd (human BCMA): 0.02 nM
- koff (human BCMA): 0.000155 s⁻¹
- kon (human BCMA): 7.86e+06 M⁻¹ s⁻¹

B4: A02_Rd4_6 nM_C16 expressed in mouse IgG2a (antibody, V domains shown)
VH: EVQLLESGGGLVQPGGSLRLSCAASGFTFSSYAMNWVRQAPGKGLEWVSAISDFGGSTYYADSVKGRFTISRDNSKNTLYLQMNSLRAEDTAVYYCARYWPMDIWGQGTLVTVSS
VL: EIVLTQSPGTLSLSPGERATLSCRASQSVSDLYLAWYQQKPGQAPRLLMYDASIRATGIPDRFSGSGSGTDFTLTISRLEPEDFAVYYCQQYQTWPLTFGQGTKVEIK
- MFI [2]: 1950
- MFI [3]: 789
- MFI [4]: 3090
- MFI [5]: 421

B5: Combo_Rd4_0.6 nM_C29 expressed in mouse IgG2a (antibody, V domains shown)
VH: EVQLLESGGGLVQPGGSLRLSCAASGFTFSSYPMSWVRQAPGKGLEWVSAIGGSGGSLPYADSVKGRFTISRDNSKNTLYLQMNSLRAEDTAVYYCARYWPMDIWGQGTLVTVSS
VL: EIVLTQSPGTLSLSPGERATLSCRASQSVSSSYLAWYQQKPGQAPRLLMYDASIRATGIPDRFSGSGSGTDFTLTISRLEPEDFAVYYCQQYQSWPLTFGQGTKVEIK
- MFI [2]: 2570
- MFI [3]: 1670
- MFI [4]: 6110
- MFI [5]: 583

B6: A02_Rd4_6 nM_C01 expressed in mouse IgG2a (antibody, V domains shown)
VH: EVQLLESGGGLVQPGGSLRLSCAASGFTFSSYAMNWVRQAPGKGLEWVSAITASGGSTYYADSVKGRFTISRDNSKNTLYLQMNSLRAEDTAVYYCARYWPMSLWGQGTLVTVSS
VL: EIVLTQSPGTLSLSPGERATLSCRASQSVSAYYLAWYQQKPGQAPRLLMYDASIRATGIPDRFSGSGSGTDFTLTISRLEPEDFAVYYCQQYERWPLTFGQGTKVEIK
- MFI [2]: 2540
- MFI [3]: 1180
- MFI [4]: 5860
- MFI [5]: 580

B7: 1C10 (antibody, mouse IgG1, V domains shown)
VH: QVQLQQPGSELVRPGASVILSCKASGYTFTSYWMHWVRQRPGQGLEWIGNIYSGGDTINYDEKFKNKAILTVDTSSSTAYMHLSSLTSEDSAVYYCTRDATSRYFFDYWGQGTTVTVSS
VL: DIVMSQSPSSLAVSAGEKVTMSCKSSQSLLNSRTRKNYLAWYQQKPGQSPKLLIYWASTRESGVPDRFTGSGSGTDFTLTIDSVQPEDLAVYYCTQSFILRTFGGGTKLEIK
notes: Cloned from immunized mouse, expressed as mouse IgG1; also called anti-CD3 1C10
- Kd (human CD3 (huCD3ed) [1]): 8 nM
- t1/2 (human CD3 (huCD3ed) [1]): 4.88 min

B8: 7A3 (antibody, mouse IgG1, V domains shown)
VH: EVQLQQSGAELVRPGALVKLSCKGSGFNIKDYYIHWVKQRPEQGLEWIGWIDPENGNNKYDPKFQGKASITADTSSNIAYLQLSSLTSEDTAVYYCARNDNYAFDYWGQGTTVTVSS
VL: DIVVSQSPSSLAVSAGEKVIMSCKSSQSLLNSRTRKNYLAWYQLKPGQSPKLLIYSASTRESGVPDRFTGSGSGTDFTLTISSVQTEDLAVYYCMQSFTLRTFGGGTKLEIK
notes: Cloned from immunized mouse, expressed as mouse IgG1; also called anti-CD3 7A3
- Kd (human CD3 (huCD3ed) [6]): 82.7 nM

B9: h2B4 (antibody, V domains shown)
VH: EVQLVESGGGLVQPGGSLRLSCAASGFTFSDYYMTWVRQAPGKGLEWVAFIRNRARGYTSDHNASVKGRFTISRDNAKNSLYLQMNSLRAEDTAVYYCARDRPSYYVLDYWGQGTTVTVSS
VL: DIVMTQSPDSLAVSLGERATINCTSSQSLFNVRSRKNYLAWYQQKPGQPPKLLISWASTRESGVPDRFSGSGSGTDFTLTISSLQAEDVAVYYCKQSYDLFTFGSGTKLEIK
notes: Anti-CD3; tested as human IgG immobilised on the chip; also called h2B4-1d
- Kd (human CD3 (huCD3ed) [7]): 31.4 nM
- T½ (human CD3 (huCD3ed) [8]): 0.84 min
- koff (human CD3 (huCD3ed) [8]): 0.0137 s⁻¹
- kon (human CD3 (huCD3ed) [8]): 437000 M⁻¹ s⁻¹
- Kd (cynomolgus CD3 (cyCD3ed)): 3.8 nM
- T½ (cynomolgus CD3 (cyCD3ed)): 7.7 min
- koff (cynomolgus CD3 (cyCD3ed)): 0.0015 s⁻¹
- kon (cynomolgus CD3 (cyCD3ed)): 390000 M⁻¹ s⁻¹
- Kd (human CD3 (huCD3ed) [9]): 5.3 nM
- T½ (human CD3 (huCD3ed) [9]): 5.8 min
- koff (human CD3 (huCD3ed) [9]): 0.002 s⁻¹
- kon (human CD3 (huCD3ed) [9]): 370000 M⁻¹ s⁻¹

B10: h2B4-VH-yaps VL_TK (antibody, V domains shown)
VH: EVQLVESGGGLVQPGGSLRLSCAASGFTFSDYYMTWVRQAPGKGLEWVAFIRNRARGYTSDYAPSVKGRFTISRDNAKNSLYLQMNSLRAEDTAVYYCARDRPSYYVLDYWGQGTTVTVSS
VL: DIVMTQSPDSLAVSLGERATINCKSSQSLFNVRSRKNYLAWYQQKPGQPPKLLISWASTRESGVPDRFSGSGSGTDFTLTISSLQAEDVAVYYCKQSYDLFTFGSGTKLEIK
notes: Anti-CD3
- Kd (human CD3 (huCD3ed) [7]): 92 nM
- T½ (human CD3 (huCD3ed) [8]): 0.5 min
- koff (human CD3 (huCD3ed) [8]): 0.023 s⁻¹
- kon (human CD3 (huCD3ed) [8]): 250000 M⁻¹ s⁻¹
